Measurements taken from patent publication US5789163, “Enzyme linked oligonucleotide assays (ELONAS)” (NeXstar Pharmaceuticals, Inc.).

Experiments:
[1] = target: VEGF (vascular endothelial growth factor) (Homo sapiens, UniProt P15692-4 P15692-4:27-191); test: ELONA; 95% CI 0.19-0.33 nM, N=6; VEGF titration in sandwich with capture antibody, ligand 400 nM as detector, room temperature; 0.236 nM in Superblock/TBS-Tween variant; conditions: tags: R&D Systems recombinant human VEGF; chain copies: 2; label: 3'-biotin
Chain of VEGF (vascular endothelial growth factor) (P15692 other isoform, or with tags, fused parts or gaps): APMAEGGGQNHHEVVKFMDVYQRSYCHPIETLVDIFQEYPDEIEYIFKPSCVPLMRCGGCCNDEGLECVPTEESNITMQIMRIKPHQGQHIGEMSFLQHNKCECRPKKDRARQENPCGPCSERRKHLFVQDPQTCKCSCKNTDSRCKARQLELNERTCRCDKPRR

[2] = target: hCG (human chorionic gonadotropin) (Homo sapiens, UniProt P01215;P0DN86 P01215:25-116,P0DN86:21-165); test: ELONA; RNA as capture molecule in TEM buffer; detection down to 200 mIU (340 pM); conditions: tags: Vitro Diagnostics, 14,000 IU/mg, Mr 42,000; label: 5'-biotin (GDP-beta-S, iodoacetyl-LC-biotin)
Chain of hCG (human chorionic gonadotropin) (P01215 25-116, chain 1 of 2, other chains not shown): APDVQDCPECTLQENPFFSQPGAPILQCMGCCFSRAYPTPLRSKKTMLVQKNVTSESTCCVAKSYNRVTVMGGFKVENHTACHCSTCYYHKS

[3] = target: hTSH (human thyroid stimulating hormone) (Homo sapiens, UniProt P01215;P01222 P01215:25-116,P01222:21-132); test: ELONA; RNA as capture molecule in TEM buffer; signals analogous to commercial ELISA; conditions: tags: Becton Dickinson, 9 IU/mg, Mr 27,700; label: 5'-biotin (GDP-beta-S, iodoacetyl-LC-biotin)
Chain of hTSH (human thyroid stimulating hormone) (P01215 25-116, chain 1 of 2): as the sequence (P01215 25-116, chain 1 of 2, other chains not shown) above
Chain of hTSH (human thyroid stimulating hormone) (P01222 21-132, chain 2 of 2): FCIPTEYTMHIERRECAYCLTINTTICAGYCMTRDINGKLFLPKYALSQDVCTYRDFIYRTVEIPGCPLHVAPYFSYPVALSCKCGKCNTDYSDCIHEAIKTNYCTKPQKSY

B1: VEGF-NeXamer (ssRNA)
RNA: ACCCUGAUGGUAGACGCCGGG
modifications: 2'-NH2 pyrimidines
In the case of B1, the EC50 [1] is reported as 0.25 nM.

B2: H-42 (ssRNA)
RNA: GGGAGGACGAUGCGGACAAGGGCCUGAGUGUGGAGGGCACGUGGAGGGGACUGGCCAGACGACUCGCCCGA
modifications: 2'-NH2 on all C and U
B2: binds [2].

B3: T-15 (ssRNA)
RNA: GGGAGGACGAUGCGGAUGUUGGCAGCAGGGUCCGACGGCGUAACCUUGCCAGCUGCAGACGACUCGCCCGA
modifications: 2'-NH2 on all C and U
B3: binds [3].
